Laboratory results as given in patent publication US20130156764A1, “NEUTRALIZATION OF FLT3 LIGAND AS A LEUKEMIA THERAPY” (The Johns Hopkins University, priority 2010, published 2013).
Changes are numbered by the printed parent chain.

Key:
[1] = tested on: FLT3 autophosphorylation in Molm14 cells (FLT3/ITD); experiment: Inhibition of FLT3 autophosphorylation in Molm14 cells in presence of FL (immunoblot); assay type: cell-based; conditions: for effect of FL on dose response curve for inhibition of FLT3 autophosphorylation: exogenous FL, in medium and plasma; for effect of addition of FL on inhibition at the highest doses used: medium and plasma
Description: (§1) Leukemia cells were washed in PBS, then lysed by re-suspending them in lysis buffer (20 mM Tris pH 7.4, 100 mM NaCl, 1% Igepal (Sigma, St. Louis, Mo.), 1 mM EDTA, 2 mM NaV04, plus Complete protease inhibitor (Roche)) for 30 minutes while rocking. The extract was clarified by centrifugation at 14,000 rpm and the supernatant was assayed for protein (Bio-Rad, Richmond, Calif.). A 50 μg aliquot was removed as whole-cell lysate for analysis of STAT5, and the remainder was used for immunoprecipitation with anti-FLT3 antibody. Anti-FLT3 antibody (SI8; Santa Cruz Biotechnology, Santa Cruz, Calif.) was added to the extract for overnight incubation, then protein A sepharose (Upstate Biotechnology, Lake Placid, N.Y.) was added for 2 additional hours. Separate SDS-PAGE (sodium dodecylsulfate polyacrylamide electrophoresis) gels for whole-cell lysate and immunoprecipitates were run in parallel, After transfer to Immobilon membranes (Millipore, Bedford, Mass.), immunoblotting was performed with antiphosphotyrosine antibody (4G10; Upstate Biotechnology, Lake Placid, N.Y.) to detect phosphorylated FLT3, and then stripped and re-probed with anti-FLT3 antibody to measure total FLT3. Proteins were visualized using chemiluminescence (ECL; GE Healthcare, Piscataway, N.J.), exposed on Kodak BioMax XAR Film, developed, and scanned using a BioRad GS800 densitometer.

FLT3 [2] = experiment: Plasma inhibitory activity (PIA) assay for FLT3 with patient plasma on TF/ITD cells; assay type: cell-based, human; conditions: for mean PIA value: AML15 trial
Description: as §1
Frozen plasma samples were thawed and clarified by centrifugation at 14,000 rpm for 2 minutes. All assays described herein were performed within 12 months of collection. For each time point, 2×10^6 TF/ITD were incubated with 1 ml plasma at 37° C. for 1 hour. The cells were washed twice with ice-cold PBS then lysed. After immunoblotting for phosphorylated FLT3 as described above, densitometric analysis was performed on the bands and the PIA for a given plasma sample was calculated by expressing the density of its corresponding band as a percentage of the density of the baseline band (which was arbitrarily set at 100%).

FLT3 [3] = conditions: previous monotherapy trials; cited from earlier work
[4] = target: T1, FLT3/ITD mutant (addition of 6 amino acids, RTDFRE, after amino acid No. 596 of full-length FLT3) (human) (UniProt P36888); experiment: cell-based or functional assay
T1 sequence: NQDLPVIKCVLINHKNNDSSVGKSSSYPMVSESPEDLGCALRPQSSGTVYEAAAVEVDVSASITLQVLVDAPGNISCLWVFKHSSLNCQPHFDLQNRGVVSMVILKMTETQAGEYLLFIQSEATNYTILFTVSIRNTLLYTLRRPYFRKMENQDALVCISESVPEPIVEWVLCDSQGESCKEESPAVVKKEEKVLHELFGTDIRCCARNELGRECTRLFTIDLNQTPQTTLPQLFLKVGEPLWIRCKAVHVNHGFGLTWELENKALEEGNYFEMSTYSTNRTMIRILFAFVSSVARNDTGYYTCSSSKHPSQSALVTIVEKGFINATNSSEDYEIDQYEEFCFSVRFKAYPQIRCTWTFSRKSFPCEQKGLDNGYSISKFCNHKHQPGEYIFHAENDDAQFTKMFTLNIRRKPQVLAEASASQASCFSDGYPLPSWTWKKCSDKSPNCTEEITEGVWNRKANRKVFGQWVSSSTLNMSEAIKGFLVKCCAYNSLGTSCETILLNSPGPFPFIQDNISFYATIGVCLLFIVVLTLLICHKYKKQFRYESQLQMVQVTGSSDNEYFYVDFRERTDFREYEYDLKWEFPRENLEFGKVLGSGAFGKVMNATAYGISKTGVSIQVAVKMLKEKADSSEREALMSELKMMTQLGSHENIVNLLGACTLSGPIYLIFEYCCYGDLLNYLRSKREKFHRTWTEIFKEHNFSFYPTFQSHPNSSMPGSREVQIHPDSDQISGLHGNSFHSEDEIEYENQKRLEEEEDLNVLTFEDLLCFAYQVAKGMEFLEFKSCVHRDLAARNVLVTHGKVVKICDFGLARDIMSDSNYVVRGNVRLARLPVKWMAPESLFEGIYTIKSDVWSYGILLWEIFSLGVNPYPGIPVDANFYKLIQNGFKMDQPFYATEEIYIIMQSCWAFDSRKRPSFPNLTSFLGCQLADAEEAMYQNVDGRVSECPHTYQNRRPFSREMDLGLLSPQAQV

[5] = target: T2, FLT3/TKD mutant (D835, Aspartic acid to Tyrosine change, in full-length FLT3) (human) (UniProt P36888); experiment: cell-based or functional assay
T2 sequence: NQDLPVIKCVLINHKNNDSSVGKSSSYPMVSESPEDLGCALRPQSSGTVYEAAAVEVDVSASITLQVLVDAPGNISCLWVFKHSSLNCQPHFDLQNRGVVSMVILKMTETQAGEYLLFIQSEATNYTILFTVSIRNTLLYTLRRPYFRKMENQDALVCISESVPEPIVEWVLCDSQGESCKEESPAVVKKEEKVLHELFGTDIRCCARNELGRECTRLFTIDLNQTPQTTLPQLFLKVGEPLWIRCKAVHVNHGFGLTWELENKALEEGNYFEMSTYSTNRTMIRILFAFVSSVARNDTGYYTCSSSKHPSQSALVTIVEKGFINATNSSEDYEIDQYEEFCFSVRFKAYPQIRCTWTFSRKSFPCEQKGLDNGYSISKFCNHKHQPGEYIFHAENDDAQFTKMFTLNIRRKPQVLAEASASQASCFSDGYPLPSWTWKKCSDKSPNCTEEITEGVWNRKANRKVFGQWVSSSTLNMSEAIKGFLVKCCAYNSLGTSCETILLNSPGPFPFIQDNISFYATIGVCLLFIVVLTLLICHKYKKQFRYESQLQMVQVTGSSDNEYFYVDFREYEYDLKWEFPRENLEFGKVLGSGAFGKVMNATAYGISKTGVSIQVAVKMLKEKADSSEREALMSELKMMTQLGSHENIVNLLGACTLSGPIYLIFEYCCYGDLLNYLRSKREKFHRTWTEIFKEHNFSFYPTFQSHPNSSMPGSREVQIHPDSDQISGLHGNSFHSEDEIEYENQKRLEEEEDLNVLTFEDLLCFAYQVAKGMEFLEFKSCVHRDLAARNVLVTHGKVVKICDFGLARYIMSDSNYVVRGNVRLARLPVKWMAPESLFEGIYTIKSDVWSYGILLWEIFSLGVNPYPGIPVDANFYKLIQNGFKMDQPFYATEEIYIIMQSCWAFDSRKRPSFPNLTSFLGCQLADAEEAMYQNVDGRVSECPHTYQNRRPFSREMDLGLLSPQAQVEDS

[6] = target: T3, wild-type FLT3 (full-length, expressed in FL-/- MEF cells) (human) (UniProt P36888); experiment: cell-based or functional assay
T3 sequence: T2 sequence with Y809D

Molecule: CNC(=O)c1cc(Oc2ccc(NC(=O)Nc3ccc(Cl)c(C(F)(F)F)c3)cc2)ccn1 [sorafenib, Sorafenib]
- effect of FL on dose response curve for inhibition of FLT3 autophosphorylation [1]: upward shift in the dose response curves
- effect of addition of FL on inhibition at the highest doses used [1]: loss of complete inhibition

Molecule: C[C@]12O[C@H](C[C@]1(O)CO)n1c3ccccc3c3c4c(c5c6ccccc6n2c5c31)CNC4=O [lestaurtinib, Lestaurtinib]
- samples below 15% of baseline FLT3 activity (FLT3 [2]; AML15 trial (newly diagnosed AML), Day 15 trough): all 18
- mean PIA value (FLT3 [2]; course 1, 18 samples): 3 % of baseline
- mean PIA value (FLT3 [2]; courses 2 through 4, 18 samples): 6.8%
- samples achieving target level of inhibition (FLT3 below 15% of baseline) (FLT3 [2]; Cephalon 204 trial (relapsed AML), Day 15 trough, 78 samples): 62%
- FLT3 autophosphorylation remaining with FL ([1]; 10 μM in plasma, 3 ng/mL FL): significant residual FLT3 autophosphorylation
- effect of FL on dose response curve for inhibition of FLT3 autophosphorylation [1]: upward shift in the dose response curve
- trough levels in vivo sufficient to induce FLT3 inhibition to 15% of baseline (FLT3 [3]): 5 µM

Molecule: O=C(c1ccc(/C=C/c2n[nH]c3ccccc23)cc1)N1CCNCC1 [KW-2449]
- effect of FL on dose response curve for inhibition of FLT3 autophosphorylation [1]: upward shift in the dose response curves
- effect of addition of FL on inhibition at the highest doses used [1]: loss of complete inhibition

B1: secreted form of FL expressed from a lentiviral vector (coding sequence from pUMVC3-hFLex plasmid) (ligand)
chain: TQDCSFQHSPISSDFAVKIRELSDYLLQDYPVTVASNLQDEELCGGLWRLVLAQRWMERLKTVAGSKMQGLLERVNTEIHFVTKCAFQPPPSCLRFVQTNISRLLQETSEQLVALKPWITRQNFSRCLELQCQPDSSTLPPPWSPRPLEATAPTAP
- FLT3 phosphorylation in FL-/- MEF-ITD cells stably expressing FL, no exogenous FL [4]: > 3 fold
- FLT3 phosphorylation in FL-/- MEF-TKD cells stably expressing FL, no exogenous FL [5]: > 3 fold
- FLT3 phosphorylation in FL-/- MEF-FLT3 cells stably expressing FL, no exogenous FL [6]: > 3 fold

B2: Recombinant human FL (FLT3 ligand), PeproTech (ligand)
chain: TQDCSFQHSPISSDFAVKIRELSDYLLQDYPVTVASNLQDEELCGGLWRLVLAQRWMERLKTVAGSKMQGLLERVNTEIHFVTKCAFQPPPSCLRFVQTNISRLLQETSEQLVALKPWITRQNFSRCLELQCQPDSSTLPPPWSPRPLEATAPTA
- AKT phosphorylation in BaF3/ITD cells after FL stimulation [4]: 1.3 fold
- FLT3 phosphorylation (anti-FLT3 IP, 4G10 immunoblot, densitometry) in FL-/- MEF-ITD cells, FL 100 ng/mL 15 min [4]: > 4 fold
- FLT3 phosphorylation in TF1/ITD cells, exogenous FL 15 min [4]: > 2 fold
- STAT5 phosphorylation in TF1/ITD cells after FL stimulation [4]: 1.8 fold
- apoptotic population (Annexin V/7AAD, FACS) of TF1/ITD cells, 48 h serum-free, with FL [4]: 49.5%
- apoptotic population (Annexin V/7AAD, FACS) of TF1/ITD cells, 48 h serum-free, without FL [4]: 61.3%
- AKT phosphorylation in BaF3/TKD cells after FL stimulation [5]: 2.2 fold
- FLT3 phosphorylation (anti-FLT3 IP, 4G10 immunoblot, densitometry) in FL-/- MEF-TKD cells, FL 100 ng/mL 15 min [5]: > 4 fold
- FLT3 phosphorylation in TF1/TKD cells, exogenous FL 15 min [5]: > 2 fold
- STAT5 phosphorylation in TF1/TKD cells after FL stimulation [5]: 1.8 fold
- apoptotic population (Annexin V/7AAD, FACS) of TF1/TKD cells, 48 h serum-free, with FL [5]: 31.6%
- apoptotic population (Annexin V/7AAD, FACS) of TF1/TKD cells, 48 h serum-free, without FL [5]: 40.2%
- FLT3 phosphorylation (anti-FLT3 IP, 4G10 immunoblot, densitometry) in FL-/- MEF-FLT3 cells, FL 100 ng/mL 15 min [6]: > 4 fold
